Values of other authors, collected in article PMC12720343.

Molecular target: SpoIIQ extracytoplasmic fragment (Bacillus subtilis) (UniProt P71044)
UniProt P71044, sequence (P71044 43-283): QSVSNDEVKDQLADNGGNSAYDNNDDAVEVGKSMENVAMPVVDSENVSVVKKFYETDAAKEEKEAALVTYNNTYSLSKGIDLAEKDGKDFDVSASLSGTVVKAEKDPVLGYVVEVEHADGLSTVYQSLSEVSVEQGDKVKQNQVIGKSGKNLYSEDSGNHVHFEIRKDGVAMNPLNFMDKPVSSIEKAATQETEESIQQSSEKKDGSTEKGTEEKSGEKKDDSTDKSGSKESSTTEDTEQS

**Q.** With “SpoIIIAH extracytoplasmic fragment (from UniProt P49785)” as the substance, how does the Kd read?
**A.** 1 µM
